T1: FcγRIIb (human, UniProt P31994 43-217)
T1 construct: extracellular domain; also called FcgRIIb; 2b; not shown: His tag at the C terminus
T1 sequence (looked up): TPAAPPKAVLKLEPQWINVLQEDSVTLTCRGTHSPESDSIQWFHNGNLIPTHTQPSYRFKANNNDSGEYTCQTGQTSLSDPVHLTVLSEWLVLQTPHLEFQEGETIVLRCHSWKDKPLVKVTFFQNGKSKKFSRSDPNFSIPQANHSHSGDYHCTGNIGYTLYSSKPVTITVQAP

T2: FcγRIIb extracellular domain with C-terminal His tag (human, UniProt P31994 43-217)
T2 construct: extracellular domain; Expressed in FreeStyle293 cells; analyte in the Biacore assay; also called FcgRIIb; 2b; not shown: His tag at the C terminus
T2 sequence (looked up): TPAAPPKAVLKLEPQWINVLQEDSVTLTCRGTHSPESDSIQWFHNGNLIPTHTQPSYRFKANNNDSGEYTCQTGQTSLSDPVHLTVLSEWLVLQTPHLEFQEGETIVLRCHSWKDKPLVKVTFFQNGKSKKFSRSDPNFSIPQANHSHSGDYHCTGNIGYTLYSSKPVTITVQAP


Assays:
FcγRIa [1] = target: T3, FcγRIa (human, UniProt P12314 16-292); assay: SPR; He/Con_1a divided by He/Con_2b (FcγRIIb as reference)
T3 construct: extracellular domain; also called FcgRI; 1a; not shown: His tag at the C terminus

FcγRIa [2] = target: T3, FcγRIa; assay: SPR (Biacore), captured antibody, soluble FcγR; relative to GpH7-A5/GpH7-B3/GpL16-k0
FcγRIIb = target: T1, FcγRIIb; assay: as above
[3] = target: T4, FcγRIa extracellular domain with C-terminal His tag (human, UniProt P12314 16-292); assay: SPR (Biacore), antibody captured on antigen-peptide chip, FcγR as analyte; relative binding
T4 construct: extracellular domain; Expressed in FreeStyle293 cells; analyte in the Biacore assay; also called FcgRI; 1a; not shown: His tag at the C terminus

[4] = target: T2, FcγRIIb extracellular domain with …; assay: as above

T4 sequence (P12314 16-292): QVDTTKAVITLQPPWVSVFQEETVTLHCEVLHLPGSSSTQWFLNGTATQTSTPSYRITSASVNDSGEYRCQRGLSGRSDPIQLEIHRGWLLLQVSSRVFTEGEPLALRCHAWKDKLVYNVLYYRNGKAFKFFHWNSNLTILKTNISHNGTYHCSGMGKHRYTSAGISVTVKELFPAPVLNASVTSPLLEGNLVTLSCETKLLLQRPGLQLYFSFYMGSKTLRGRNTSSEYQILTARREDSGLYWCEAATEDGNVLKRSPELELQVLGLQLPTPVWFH
T3 sequence (P12314 16-292): as above

| Binder | Ia/IIb He_1a/2b (FcγRIa [1]) [ratio] | He/Con_1a (FcγRIa [2]) | He/Con_2b (FcγRIIb) | He/Con_1a [3] | He/Con_2b [4] |
| --- | --- | --- | --- | --- | --- |
| GpH7-A5/GpH7-B3 variant V266_10E/GpL16-k0 (antibody, human IgG1, kappa, He Ab: mutation only in the GpH7-B3 H chain; EU numbering; also called He Ab) heavy 1: not shown heavy 2: not shown light: DIVMTQSPLSLPVTPGEPASISCQASESLVHSNRNTYLHWYLQKPGQSPQLLIYKVSNRFSGVPDRFSGSGSGTDFTLKISRVEAEDVGVYYCSQNTHVPPTFGQGTKVEIERTVAAPSVFIFPPSDEQLKSGTASVVCLLNNFYPREAKVQWKVDNALQSGNSQESVTEQDSKDSTYSLSSTLTLSKADYEKHKVYACEVTHQGLSSPVTKSFNRGEC | 5.37 | 81.9 relative, HeCon Ab = 100 | 15.2 relative, HeCon Ab = 100 | – | – |
| GpH7-A5/GpH7-B3 variant E269_01G/GpL16-k0 (He Ab) (antibody, human IgG1, kappa, Heterodimerized anti-glypican-3 IgG1; the mutation stands in the GpH7-B3 chain only) heavy 1: not shown heavy 2: not shown light: DIVMTQSPLSLPVTPGEPASISCQASESLVHSNRNTYLHWYLQKPGQSPQLLIYKVSNRFSGVPDRFSGSGSGTDFTLKISRVEAEDVGVYYCSQNTHVPPTFGQGTKVEIERTVAAPSVFIFPPSDEQLKSGTASVVCLLNNFYPREAKVQWKVDNALQSGNSQESVTEQDSKDSTYSLSSTLTLSKADYEKHKVYACEVTHQGLSSPVTKSFNRGEC | – | – | – | 104 % of GpH7-A5/GpH7-B3/GpL16-k0 (=100) | 51.5 % of GpH7-A5/GpH7-B3/GpL16-k0 (=100) |
| GpH7-A5/GpH7-B3 variant V266_18N/GpL16-k0 (antibody, human IgG1, kappa, He Ab: mutation only in the GpH7-B3 H chain; EU numbering; also called He Ab) heavy 1: not shown heavy 2: not shown light: DIVMTQSPLSLPVTPGEPASISCQASESLVHSNRNTYLHWYLQKPGQSPQLLIYKVSNRFSGVPDRFSGSGSGTDFTLKISRVEAEDVGVYYCSQNTHVPPTFGQGTKVEIERTVAAPSVFIFPPSDEQLKSGTASVVCLLNNFYPREAKVQWKVDNALQSGNSQESVTEQDSKDSTYSLSSTLTLSKADYEKHKVYACEVTHQGLSSPVTKSFNRGEC | 1.43 | 99.5 relative, HeCon Ab = 100 | 69.7 relative, HeCon Ab = 100 | – | – |
| GpH7-A5/GpH7-B3 variant E269_05P/GpL16-k0 (He Ab) (antibody, human IgG1, kappa, Heterodimerized anti-glypican-3 IgG1; the mutation stands in the GpH7-B3 chain only) heavy 1: not shown heavy 2: not shown light: DIVMTQSPLSLPVTPGEPASISCQASESLVHSNRNTYLHWYLQKPGQSPQLLIYKVSNRFSGVPDRFSGSGSGTDFTLKISRVEAEDVGVYYCSQNTHVPPTFGQGTKVEIERTVAAPSVFIFPPSDEQLKSGTASVVCLLNNFYPREAKVQWKVDNALQSGNSQESVTEQDSKDSTYSLSSTLTLSKADYEKHKVYACEVTHQGLSSPVTKSFNRGEC | – | – | – | 102 % of GpH7-A5/GpH7-B3/GpL16-k0 (=100) | 52.6 % of GpH7-A5/GpH7-B3/GpL16-k0 (=100) |
| GpH7-A5/GpH7-B3 variant E269_11K/GpL16-k0 (He Ab) (antibody, human IgG1, kappa, Heterodimerized anti-glypican-3 IgG1; the mutation stands in the GpH7-B3 chain only) heavy 1: not shown heavy 2: not shown light: DIVMTQSPLSLPVTPGEPASISCQASESLVHSNRNTYLHWYLQKPGQSPQLLIYKVSNRFSGVPDRFSGSGSGTDFTLKISRVEAEDVGVYYCSQNTHVPPTFGQGTKVEIERTVAAPSVFIFPPSDEQLKSGTASVVCLLNNFYPREAKVQWKVDNALQSGNSQESVTEQDSKDSTYSLSSTLTLSKADYEKHKVYACEVTHQGLSSPVTKSFNRGEC | – | – | – | 95.2 % of GpH7-A5/GpH7-B3/GpL16-k0 (=100) | 17.8 % of GpH7-A5/GpH7-B3/GpL16-k0 (=100) |
| GpH7-A5/GpH7-B3 variant V266_20W/GpL16-k0 (antibody, human IgG1, kappa, He Ab: mutation only in the GpH7-B3 H chain; EU numbering; also called He Ab) heavy 1: not shown heavy 2: not shown light: DIVMTQSPLSLPVTPGEPASISCQASESLVHSNRNTYLHWYLQKPGQSPQLLIYKVSNRFSGVPDRFSGSGSGTDFTLKISRVEAEDVGVYYCSQNTHVPPTFGQGTKVEIERTVAAPSVFIFPPSDEQLKSGTASVVCLLNNFYPREAKVQWKVDNALQSGNSQESVTEQDSKDSTYSLSSTLTLSKADYEKHKVYACEVTHQGLSSPVTKSFNRGEC | 1.27 | 91.4 relative, HeCon Ab = 100 | 71.9 relative, HeCon Ab = 100 | – | – |
| GpH7-A5/GpH7-B3 variant V266_11K/GpL16-k0 (antibody, human IgG1, kappa, He Ab: mutation only in the GpH7-B3 H chain; EU numbering; also called He Ab) heavy 1: not shown heavy 2: not shown light: DIVMTQSPLSLPVTPGEPASISCQASESLVHSNRNTYLHWYLQKPGQSPQLLIYKVSNRFSGVPDRFSGSGSGTDFTLKISRVEAEDVGVYYCSQNTHVPPTFGQGTKVEIERTVAAPSVFIFPPSDEQLKSGTASVVCLLNNFYPREAKVQWKVDNALQSGNSQESVTEQDSKDSTYSLSSTLTLSKADYEKHKVYACEVTHQGLSSPVTKSFNRGEC | 63.5 | 64.4 relative, HeCon Ab = 100 | 1 relative, HeCon Ab = 100 | – | – |
| GpH7-A5/GpH7-B3 variant E269_02A/GpL16-k0 (He Ab) (antibody, human IgG1, kappa, Heterodimerized anti-glypican-3 IgG1; the mutation stands in the GpH7-B3 chain only) heavy 1: not shown heavy 2: not shown light: DIVMTQSPLSLPVTPGEPASISCQASESLVHSNRNTYLHWYLQKPGQSPQLLIYKVSNRFSGVPDRFSGSGSGTDFTLKISRVEAEDVGVYYCSQNTHVPPTFGQGTKVEIERTVAAPSVFIFPPSDEQLKSGTASVVCLLNNFYPREAKVQWKVDNALQSGNSQESVTEQDSKDSTYSLSSTLTLSKADYEKHKVYACEVTHQGLSSPVTKSFNRGEC | – | – | – | 104 % of GpH7-A5/GpH7-B3/GpL16-k0 (=100) | 49.9 % of GpH7-A5/GpH7-B3/GpL16-k0 (=100) |
| GpH7-A5/GpH7-B3 variant E269_12R/GpL16-k0 (He Ab) (antibody, human IgG1, kappa, Heterodimerized anti-glypican-3 IgG1; the mutation stands in the GpH7-B3 chain only) heavy 1: not shown heavy 2: not shown light: DIVMTQSPLSLPVTPGEPASISCQASESLVHSNRNTYLHWYLQKPGQSPQLLIYKVSNRFSGVPDRFSGSGSGTDFTLKISRVEAEDVGVYYCSQNTHVPPTFGQGTKVEIERTVAAPSVFIFPPSDEQLKSGTASVVCLLNNFYPREAKVQWKVDNALQSGNSQESVTEQDSKDSTYSLSSTLTLSKADYEKHKVYACEVTHQGLSSPVTKSFNRGEC | – | – | – | 97.1 % of GpH7-A5/GpH7-B3/GpL16-k0 (=100) | 25.2 % of GpH7-A5/GpH7-B3/GpL16-k0 (=100) |

Reference: US20180155451A1 (published 2018)
